Experimental findings from paper PMC3378860 are described below.

What all share (experiment): EMSA
(In general: In EMSA bound probe runs differently from free probe, usually more slowly.)

Series [1] relates to I-S-I complex (ISW2 with Snf2 ATPase domain) ((yeast)).
In series [2] the test system is ISW2 complex ((yeast)).
Series [3] deals with SWI/SNF complex ((yeast)).

For the substance 217 bp DNA, the values for the dissociation constant Kd in series [1], in series [2] and in series [3] were 31 nM, 25 nM and 20 nM, respectively.
